# The supplement of paper PMC10126150
# ± gives the standard deviation of the averaged measurements.
# Test system: ATP
# Experiment: switch fluorescence ratio, 500 uM ATP over buffer (Cy3 cluster intensity, sum of 5 cycles each) (fold (ratio)); higher = stronger signal-on switching upon ATP binding; sequences stand for … in TCGTCGGCAGCGTCAGATGTGTATAAGAGACAGTTTTTTTTTTTTTTTTTTTTTTTTT…TC
# Conditions: aptamer strand: ATP DNA aptamer (quencher-CACCTGGGGGAGTATTGCGGAGGAAGG + anchor), 100 nM annealed; ATP concentration: 500 uM
# In short: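 Clusters with intensities outside 100-1000 RFU were excluded. The remaining Cy3-labelled switching-strand clusters on a modified Illumina MiSeq flow-cell had been annealed to 100 nM quencher-labelled ATP aptamer and imaged in selection buffer, then after 15 min with 500 uM ATP at 22 °C, for five cycles separated by NaOH stripping and re-annealing. The fluorescence ratio, averaged per switch-domain sequence, is each cluster's summed target-cycle Cy3 intensity over its summed buffer-cycle Cy3 intensity.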
# 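Note: ATP exposure 15 min at 22 °C before imaging.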
row,Sequence,switch fluorescence ratio
1,ATTTGAGTTA,1 ± 0.056
2,CGCCTCAGGG,1.14 ± 0.018
3,TGTGTTTTTG,1.01 ± 0.015
4,ATTAAGCAAG,1.04 ± 0.015
5,AGAACTGGTT,0.961 ± 0.034
6,TTAAAGGGTG,1.08 ± 0.048
7,CGGGCGGTCG,0.975 ± 0.068
8,GTTGTGTGTA,0.9921 ± 0.0082
9,TAGCTGTACA,1.01 ± 0.015
10,TGTGTGTTGG,0.993 ± 0.024
11,TCGGTGTGAG,1.01 ± 0.03
12,AAGATTTCGT,1 ± 0.044
13,GTGTTCTTAT,1.01 ± 0.011
14,AATCGTGGGG,0.975 ± 0.017
15,GGGATTATGG,1.01 ± 0.038
16,GACATGGCAG,1.02 ± 0.04
17,CTTGATAACG,1.024 ± 0.0033
18,AGTCACGTAG,1.03 ± 0.019
19,GGGAATAGCG,0.977 ± 0.046
20,CTACGTCATT,1.41 ± 0.095
21,TGCAGTTTGA,1.02 ± 0.012
22,GTGGTTTGAC,0.99 ± 0.013
23,TTTGGTTATA,1 ± 0.012
24,TTAAGTGGTT,0.998 ± 0.011
25,ACGGATATGG,0.98 ± 0.011

row,Sequence,switch fluorescence ratio
1,TATTTGGACG,1.05 ± 0.068
2,TATGTTGGTG,0.987 ± 0.018
3,CTGTTTCGGG,0.978 ± 0.029
4,GGTACCAGTT,1.01 ± 0.012
5,TCAAACAGGG,1.04 ± 0.051
6,CATCTCCCTG,1.06 ± 0.016
7,GAGGACGGGG,1.01 ± 0.011
8,AAAATCGAGG,1.016 ± 0.004
9,TTCCCCGTTG,1.12 ± 0.15
10,AATTCCGAGG,1.14 ± 0.021
11,GCTGACGTTA,1.1 ± 0.011
12,TTCATAACAA,1.02 ± 0.022
13,TTCGGATTGG,1.01 ± 0.0061
14,GGACTTAGGG,0.9839 ± 0.0075
15,TTATACATCT,1.038 ± 0.0068
16,TCTTGGGGGC,1.01 ± 0.052
17,AATGGAATCC,1.02 ± 0.035
18,AAGAATGACT,0.977 ± 0.014
19,GAAGGGAAGA,0.96 ± 0.012
20,ACCCGTTGTG,1.05 ± 0.03
21,GGTTTAGAGC,1.01 ± 0.02
22,GCCATTAAGA,1.01 ± 0.011
23,TAAGCTGTGG,1.02 ± 0.028
24,AGCAGACTGG,0.988 ± 0.0033
25,TACGGGGGAC,1.07 ± 0.047

row,Sequence,switch fluorescence ratio
1,ATCGATCTGG,1 ± 0.015
2,TTGGAATTCA,1.02 ± 0.071
3,AATGGTTTTC,0.9948 ± 0.0023
4,ACGAGGCCAG,1.23 ± 0.032
5,GGAGGATGCT,0.948 ± 0.053
6,GAAAAGGTAA,1.025 ± 0.0033
7,TAGGGGAAGC,0.989 ± 0.031
8,GGCAGGGGAA,1.01 ± 0.012
9,AGTTAGATCT,1.005 ± 0.009
10,CGGGGGCTCG,0.989 ± 0.069
11,GATGTAATCT,1.02 ± 0.025
12,TTTTCGTGAA,1.01 ± 0.021
13,GAGGAAGTAT,0.978 ± 0.0024
14,TTTGGGTGGG,0.985 ± 0.041
15,AAATGTTTAA,1.01 ± 0.019
16,AGTAGTCGTC,0.99 ± 0.058
17,TTTATGAGGG,1.02 ± 0.047
18,ATGTGACTCT,1.01 ± 0.043
19,GGTTTCGACG,1.01 ± 0.011
20,TAAAATATTT,1.05 ± 0.069
21,TTTTCATTTC,1.01 ± 0.012
22,ATATCTCCGG,1.07 ± 0.014
23,ACAGGGATCA,0.981 ± 0.052
24,ATAGGGGCGG,0.978 ± 0.035
25,TTTTGTTTA,0.984 ± 0.022

row,Sequence,switch fluorescence ratio
1,CATTACAACA,1.02 ± 0.059
2,TTGCCTGAAA,1 ± 0.019
3,GTGTAGGGAT,0.964 ± 0.015
4,CGGCATGGGT,0.989 ± 0.018
5,CTGTTTTTGA,0.96 ± 0.061
6,ACTGTACCCT,1.22 ± 0.016
7,ATTGCGGTTT,0.991 ± 0.032
8,TACTACTTAT,1.04 ± 0.053
9,GAGGTTGGAG,1 ± 0.00098
10,GGTTGTTCCG,0.9973 ± 0.0073
11,GAATAAGATC,1.02 ± 0.042
12,TGAAACCCTA,1.03 ± 0.016
13,CCCCATTTTT,1.06 ± 0.067
14,GCGGGTTTTC,1.03 ± 0.017
15,TCGTGTAAAC,0.981 ± 0.028
16,TTTGCGTGCA,0.975 ± 0.011
17,TTTGAAGGG,0.965 ± 0.012
18,AGCACGAAGG,0.992 ± 0.04
19,GAAACCGGAT,0.966 ± 0.041
20,TAGAAAAAGA,0.988 ± 0.016
21,AGGTGGGGAG,0.998 ± 0.041
22,TTTGGTGTCC,0.984 ± 0.017
23,ATATGAATGA,1.01 ± 0.015
24,GGTTTTCTGG,1.02 ± 0.027
25,AGACATCTTT,1.016 ± 0.0062

row,Sequence,switch fluorescence ratio
1,GGGGCACAGC,1 ± 0.016
2,GGTGTAGGT,0.986 ± 0.022
3,CTAAGGGGGA,1 ± 0.018
4,AGGTGAGGTA,1 ± 0.019
5,TGGGAAACGT,1.09 ± 0.027
6,GAAGTGGGTG,1.11 ± 0.17
7,GATCGAACGT,1.017 ± 0.0085
8,CGAGATGTTA,0.993 ± 0.015
9,AAGATGTATT,0.9561 ± 0.0015
10,TTTAGGTAT,1 ± 0.023
11,TAAAATGTGA,0.963 ± 0.021
12,AGTAAAGGCC,1.02 ± 0.08
13,TAAGCTCGTG,0.97 ± 0.019
14,AACGGGGTGG,0.976 ± 0.044
15,GGGAACAGCA,1.027 ± 0.0047
16,TCTATTATTT,1.03 ± 0.061
17,AATGCTCGGC,0.9646 ± 0.0092
18,CCTGCTTGGT,1.029 ± 0.0082
19,AGACAGGTAA,1.01 ± 0.02
20,TTGGTCTATC,0.998 ± 0.035
21,AGGATTGTGT,0.9523 ± 0.0032
22,TTATGGGCAG,1.01 ± 0.029
23,TTTTTATATA,0.997 ± 0.016
24,GGGTAGCTAG,1.04 ± 0.022
25,GCCCTCTCGA,1.018 ± 0.0079

row,Sequence,switch fluorescence ratio
1,CGCAAATCAA,1.38 ± 0.073
2,CTGTGGGCCG,1 ± 0.02
3,TTGGGGGACG,0.982 ± 0.048
4,ACGCTCCTAC,2.64 ± 0.028
5,CGGTCGGTGT,0.982 ± 0.022
6,GTTTAGGTTT,1 ± 0.019
7,TCTGAGCCGA,1.39 ± 0.52
8,TAACATGAAG,1.004 ± 0.0073
9,CGGGGTACGT,0.985 ± 0.027
10,TGGGATTTTC,1.03 ± 0.067
11,GGCACAGGGG,1.91 ± 0.17
12,AGTCGGAAAG,1.02 ± 0.015
13,AGGGGGGCTT,1.01 ± 0.054
14,CTTCTGAGGT,1.74 ± 0.95
15,GTCAGCATTT,1.03 ± 0.038
16,GGGGGTTCGT,0.98 ± 0.036
17,CAGGTGCTGG,1.167 ± 0.0018
18,AGGTTAGGG,1 ± 0.064
19,GCGTCGAACA,0.999 ± 0.068
20,ATCGGACTTG,0.977 ± 0.033
21,AGTGGGGTTA,0.999 ± 0.04
22,TATGAAATGT,1.01 ± 0.033
23,TATGAGGATC,1.01 ± 0.039
24,GGGACGGAAA,1.11 ± 0.16
25,GTAAAATAGA,1.01 ± 0.034

row,Sequence,switch fluorescence ratio
1,TCATGCAAAT,1.04 ± 0.031
2,CATTTAAGTC,0.995 ± 0.023
3,AGGGGGACGT,0.998 ± 0.024
4,ATCAGGATCG,1.01 ± 0.014
5,CGAAAAAAAA,0.948 ± 0.062
6,TCCCAAATTT,0.983 ± 0.032
7,TACGCGGGGG,1.019 ± 0.0098
8,GGGTTAAGGA,0.989 ± 0.036
9,TGGCGTGTCA,1.02 ± 0.051
10,TGCGTTAT,1.07 ± 0.036
11,TTTTTTCTGT,1.01 ± 0.029
12,TGGGTGGTTT,1.02 ± 0.019
13,TCAGCGTGTC,0.9648 ± 0.0079
14,GAATCCGTAG,1.16 ± 0.03
15,TTCGGTGGCG,0.978 ± 0.077
16,CGGTAATGTG,1.03 ± 0.035
17,ATGAGGCCTT,1.01 ± 0.019
18,GGGCATGGGC,0.9965 ± 0.0015
19,CACGTCTGAA,0.996 ± 0.047
20,AAAGTTAATA,0.9897 ± 0.0064
21,AGCGGCCTGG,0.992 ± 0.014
22,TGTAGGGATT,1.01 ± 0.054
23,ACCGTTAGGT,0.951 ± 0.037
24,GCCTATATTT,0.994 ± 0.017
25,CGTAGGAGGG,0.997 ± 0.04

row,Sequence,switch fluorescence ratio
1,GAAATTCACA,1.04 ± 0.031
2,AAATTCAATG,0.995 ± 0.013
3,GTCAAATTGT,0.992 ± 0.017
4,ATAAACGGCG,1.01 ± 0.024
5,CGTAGGGTTT,0.976 ± 0.055
6,GCGAATTGGA,1.028 ± 0.0019
7,GCCATGTTTT,0.9646 ± 0.008
8,GCAAAAAGGC,1.03 ± 0.015
9,GGGCTAGGGT,1.02 ± 0.023
10,ACTCGAGGTT,1.05 ± 0.013
11,AAGTAACGCG,0.977 ± 0.013
12,AAATCTTTAT,1.01 ± 0.032
13,ACGATAGGGG,1.03 ± 0.031
14,CTGCAAGCGG,1.28 ± 0.057
15,AACGTACAGG,1.65 ± 0.15
16,GGGAATCGCT,0.973 ± 0.023
17,TTTACGCGGG,1.04 ± 0.075
18,ACGATAGGTA,1.06 ± 0.026
19,AGCTGTTTCA,0.973 ± 0.02
20,TAAGGGTGTG,1 ± 0.023
21,CGGTTTGTTT,0.987 ± 0.04
22,CGGATTTAGA,0.987 ± 0.043
23,CGAGTTGTTG,1.014 ± 0.0072
24,AAGGGAACTC,1.03 ± 0.02
25,AGGAGCCTTT,0.9927 ± 0.0011
